Patent US20070218061A1 (VASGENE THERAPEUTICS, published 2007)
Where two headings read alike, the source gives them in different places.

B1: Murine EphrinB1-EC-Fc (Fc fusion)
chain: ATPLAKNLEPVSWSSLNPKFLSGKGLVIYPKIGDKLDIICPRAEAGRPYEYYKLYLVRPEQAAACSTVLDPNVLVTCNKPHQEIRFTIKFQEFSPNYMGLEFKKYHDYYITSTSNGSLEGLENREGGVCRTRTMKIVMKVGQDPNAVTPEQLTTSRPSKESDNTVKTATQAPGRGSQGDSDGKHETVNQEEKSGPGAGGGGSGDSDSFFNSK
B2: Murine EphrinA2-EC-Fc (Fc fusion)
chain: RNEDPARANADRYAVYWNRSNPRFQVSAVGDGGGYTVEVSINDYLDIYCPHYGAPLPPAERMERYILYMVNGEGHASCDHRQRGFKRWECNRPAAPGGPLKFSEKFQLFTPFSLGFEFRPGHEYYYISATPPNLVDRPCLRLKVYVRPTNETLYEAPEPIFTSN
B3: EphrinB2EC-AP from pAPTag2 (ligand)
chain: IVLEPIYWNSSNSKFLPGQGLVLYPQIGDKLDIICPKVDSKTVGQYEYYKVYMVDKDQADRCTIKKENTPLLNCAKPDQDIKFTIKFQEFSPNLWGLEFQKNKDYYIISTSNGSLEGLDNQEGGVCQTRAMKILMKVGQDASSAGSTRNKDPTRRPELEAGTNGRSSTTSPFVKPNPGSSTDGNSAGHSGNNILGSEGSSGIIPVEEENPDFWNREAAEALGAAKKLQPAQTAAKNLIIFLGDGMGVSTVTAARILKGQKKDKLGPEIPLAMDRFPYVALSKTYNVDKHVPDSGATATAYLCGVKGNFQTIGLSAAARFNQCNTTRGNEVISVMNRAKKAGKSVGVVTTTRVQHASPAGTYAHTVNRNWYSDADVPASARQEGCQDIATQLISNMDIDVILGGGRKYMFPMGTPDPEYPDDYSQGGTRLDGKNLVQEWLAKRQGARYVWNRTELMQASLDPSVTHLMGLFEPGDMKYEIHRDSTLDPSLMEMTEAALRLLSRNPRGFFLFVEGGRIDHGHHESRAYRALTETIMFDDAIERAGQLTSEEDTLSLVTADHSHVFSFGGYPLRGSSIFGLAPGKARDRKAYTVLLYGNGPGYVLKDGARPDVTESESGSPEYRQQSAVPLDEETHAGEDVAVFARGPQAHLVHGVQEQTFIAHVMAFAACLEPYTACDLAPPAGTTDAAHPG
notes: also called B2-AP; B2ECAP reagent

Experiments:
[1] = target: HeV and NiV F and G envelope glycoproteins (on effector cells); assay: cell-based or functional assay
[2] = target: HeV and NiV F and G envelope glycoproteins (on effector cells); assay: cell-based or functional assay; remark: listed apart in the source
[3] = target: T1, B4ECv3 (human, UniProt P54760 16-537); assay: biochemical assays; B4ECv3 on Ni-NTA agarose, 50 nM B2-AP, PNPP colorimetry
T1 construct: also called B4ECv3 protein
T1 sequence: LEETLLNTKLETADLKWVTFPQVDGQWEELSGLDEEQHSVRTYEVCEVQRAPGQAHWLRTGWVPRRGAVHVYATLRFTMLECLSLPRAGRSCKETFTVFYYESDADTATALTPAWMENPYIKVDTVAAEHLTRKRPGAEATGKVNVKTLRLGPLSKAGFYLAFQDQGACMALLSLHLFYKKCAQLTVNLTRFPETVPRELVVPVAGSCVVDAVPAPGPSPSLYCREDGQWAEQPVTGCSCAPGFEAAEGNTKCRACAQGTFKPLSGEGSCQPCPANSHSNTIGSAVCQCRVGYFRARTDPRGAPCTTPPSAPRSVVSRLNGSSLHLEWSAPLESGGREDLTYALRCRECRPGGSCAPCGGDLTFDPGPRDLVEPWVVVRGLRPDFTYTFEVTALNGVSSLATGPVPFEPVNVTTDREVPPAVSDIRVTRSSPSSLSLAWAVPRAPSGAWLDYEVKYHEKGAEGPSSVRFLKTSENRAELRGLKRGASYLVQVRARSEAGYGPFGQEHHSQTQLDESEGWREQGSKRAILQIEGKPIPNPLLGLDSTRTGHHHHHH

Molecule	% fusion (cell fusion assay), 0.1 µg/ml inhibitor [1] [%]	% fusion (cell fusion assay), 1.0 µg/ml inhibitor [1] [%]	% fusion (cell fusion assay), 10 µg/ml inhibitor [1] [%]	% fusion (cell fusion reporter gene assay, beta-Gal), 10 µg/ml protein [1] [%]	% fusion (cell fusion assay), 0.1 µg/ml inhibitor [2] [%]	% fusion (cell fusion assay), 1.0 µg/ml inhibitor [2] [%]	% fusion (cell fusion assay), 10 µg/ml inhibitor [2] [%]	% fusion (cell fusion reporter gene assay, beta-Gal), 10 µg/ml protein [2] [%]	binding result [3]
Bovine Serum Albumin (from UniProt P02769 25-607)	112	112	124	126	–	–	–	–	–
Inactivated Human EphrinB2-Ec (from UniProt P52799 28-225) (ligand)	103	104	77.3	83.3	–	–	–	–	–
Murine EphrinB2-Ec-Fc (from UniProt P52800 29-232) (Fc fusion)	70.7	1.87	2.93	8.33	–	–	–	–	–
human EphrinB2EC-Human serum albumin fusion protein (from UniProt P52799 28-229)	85.3	115	64	54.8	–	–	–	–	–
B1	–	–	–	–	109	133	147	140	–
B2	–	–	–	–	81.3	104	112	117	–
B3	–	–	–	–	–	–	–	–	binds
